Assays:
HeLa Kyoto [1] = assay: melting temperature (median over replicates), in situ; higher = more thermally stable
HeLa Kyoto [2] = assay: solubility in G1/S (NP-40 vs SDS abundance) (log2 ratio); higher = more soluble; details: cell cycle stage: G1/S
HeLa Kyoto [3] = assay: solubility change mitosis vs G1/S (difference of NP-40 vs SDS log2 ratios) (log2 ratio difference); higher = more soluble in mitosis
HeLa Kyoto [4] = assay: thermal stability score vs G1/S (z-score of summed log2 fold changes over temperatures); higher = more thermally stable than in G1/S
[5] = cell cycle stage: early G1 (4.5 h after nocodazole release)
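Wherever melting temperature (median over replicates), in situ is given: HeLa Kyoto cells synchronized by double thymidine or nocodazole block, proteins quantified by TMT10plex mass spectrometry, three independent biological replicates.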
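Wherever solubility change mitosis vs G1/S (difference of NP-40 vs SDS log2 ratios) is given: synchronized HeLa Kyoto cells (double thymidine block for G1/S, nocodazole release for mitosis), protein amounts in NP-40 versus SDS lysates quantified by mass spectrometry, three biological replicates.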
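Wherever solubility in G1/S (NP-40 vs SDS abundance) is given: HeLa Kyoto cells arrested at G1/S by double thymidine block, proteins quantified by TMT10plex mass spectrometry in mild NP-40 versus SDS extracts, three biological replicates.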
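Wherever thermal stability score vs G1/S (z-score of summed log2 fold changes over temperatures) is given: synchronized HeLa Kyoto cells, proteins quantified by TMT10plex mass spectrometry, three biological replicates, mitosis taken 0.5 h after nocodazole release, G1/S directly after double thymidine block.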

## MLGPHLPPPPLAPSEGRPTPCAFQIPDGSYRCLALEAEESSGEEGLQGEVGPTDLEEDEGVSRSGDDSACRVTQGTPQLPKALGIQPPSCSREEQGASQHDDRASQDWDVVKAGQMMTASPSPGPGPRVAQKPALGRSTSLTEKDLKEAKARSQQIAAQLTTPPSSNSRGVQLFNRRRQRVNEFTLESHGQRGQKPSQESLRVLPSSLPGHAPGLSLSSTSLPEPGPPRHPSPQSPDRGVPGHSMEGYSEEASLLRHLEKVASEEEEVPLVVYLKENAALLTANGLHLSQNREAQQSSPAPPPAEVHSPAADVNQNLASPSATLTTPTSNSSHNPPATDVNQNPPATVVPQSLPLSSIQQNSSEAQLPSNGTGPASKPSTLCADGQPQAPAEEVRCSTLLIDKVSTPATTTSTFSREATLIPSSRPPASDFMSSSLLIDIQPNTLVVSADQEMSGRAAATTPTKVYSEVHFTLAKPPSVVNRTARPFGIQAPGGTSQMERSPMLERRHFGEKAPAPQPPSLPDRSPRPQRHIMSRSPMVERRMMGQRSPASERRPLGNFTAPPTYTETLSTAPLASWVRSPPSYSVLYPSSDPKSSHLKGQAVPASKTGILEESMARRGSRKSMFTFVEKPKVTPNPDLLDLVQTADEKRRQRDQGEVGVEEEPFALGAEASNFQQEPAPRDRASPAAAEEVVPEWASCLKSPRIQAKPKPKPNQNLSEASGKGAELYARRQSRMEKYVIESSSHTPELARCPSPTMSLPSSWKYPTNAPGAFRVASRSPARTPPASLYHGYLPENGVLRPEPTKQPPYQLRPSLFVLSPIKEPAKVSPRAASPAKPSSLDLVPNLPKGALPPSPALPRPSRSSPGLYTSPGQDSLQPTAVSPPYGGDISPVSPSRAWSPRAKQAPRPSFSTRNAGIEAQVWKPSFCFK [SYNPO]
HeLa Kyoto [1]; cell cycle stage: mitosis
  melting temperature: 52.8 °C
HeLa Kyoto [2]
  solubility in G1/S (log2): -1.65
HeLa Kyoto [3]
  solubility change mitosis (log2): 1.62
HeLa Kyoto [4]; [5]
  thermal stability score: -0.595
HeLa Kyoto [4]; cell cycle stage: mitosis
  thermal stability score: -3

## MLGSLVLRRKALAPRLLLRLLRSPTLRGHGGASGRNVTTGSLGEPQWLRVATGGRPGTSPALFSGRGAATGGRQGGRFDTKCLAAATWGRLPGPEETLPGQDSWNGVPSRAGLGMCALAAALVVHCYSKSPSNKDAALLEAARANNMQEVSRLLSEGADVNAKHRLGWTALMVAAINRNNSVVQVLLAAGADPNLGDDFSSVYKTAKEQGIHSLEDGGQDGASRHITNQWTSALEFRRWLGLPAGVLITREDDFNNRLNNRASFKGCTALHYAVLADDYRTVKELLDGGANPLQRNEMGHTPLDYAREGEVMKLLRTSEAKYQEKQRKREAEERRRFPLEQRLKEHIIGQESAIATVGAAIRRKENGWYDEEHPLVFLFLGSSGIGKTELAKQTAKYMHKDAKKGFIRLDMSEFQERHEVAKFIGSPPGYVGHEEGGQLTKKLKQCPNAVVLFDEVDKAHPDVLTIMLQLFDEGRLTDGKGKTIDCKDAIFIMTSNVASDEIAQHALQLRQEALEMSRNRIAENLGDVQISDKITISKNFKENVIRPILKAHFRRDEFLGRINEIVYFLPFCHSELIQLVNKELNFWAKRAKQRHNITLLWDREVADVLVDGYNVHYGARSIKHEVERRVVNQLAAAYEQDLLPGGCTLRITVEDSDKQLLKSPELPSPQAEKRLPKLRLEIIDKDSKTRRLDIRAPLHPEKVCNTI [CLPB]
HeLa Kyoto [1]; cell cycle stage: G1/S
  melting temperature: 52 °C
HeLa Kyoto [1]; cell cycle stage: mitosis
  melting temperature: 51.8 °C
HeLa Kyoto [2]
  solubility in G1/S (log2): 0.0358
HeLa Kyoto [3]
  solubility change mitosis (log2): -0.0294
HeLa Kyoto [4]; [5]
  thermal stability score: 0.555
HeLa Kyoto [4]; cell cycle stage: mitosis
  thermal stability score: 0.467

## MLHFNRCHHLKKITQKCFSSIHVKTDKHAQRFLSRTFALAELRKSWYSTHSLVGDKNIILMGPPGAGKTTVGRIIGQKLGCCVIDVDDDILEKTWNMSVSEKLQDVGNEQFLEEEGKAVLNFSASGSVISLTGSNPMHDASMWHLKKNGIIVYLDVPLLDLICRLKLMKTDRIVGQNSGTSMKDLLKFRRQYYKKWYDARVFCESGASPEEVADKVLNAIKRYQDVDSETFISTRHVWPEDCEQKVSAKFFSEAVIEGLASDGGLFVPAKEFPKLSCGEWKSLVGATYVERAQILLERCIHPADIPAARLGEMIETAYGENFACSKIAPVRHLSGNQFILELFHGPTGSFKDLSLQLMPHIFAHCIPPSCNYMILVATSGDTGSAVLNGFSRLNKNDKQRIAVVAFFPENGVSDFQKAQIIGSQRENGWAVGVESDFDFCQTAIKRIFNDSDFTGFLTVEYGTILSSANSINWGRLLPQVVYHASAYLDLVSQGFISFGSPVDVCIPTGNFGNILAAVYAKMMGIPIRKFICASNQNHVLTDFIKTGHYDLRERKLAQTFSPSIDILKSSNLERHLHLMANKDGQLMTELFNRLESQHHFQIEKALVEKLQQDFVADWCSEGECLAAINSTYNTSGYILDPHTAVAKVVADRVQDKTCPVIISSTAHYSKFAPAIMQALKIKEINETSSSQLYLLGSYNALPPLHEALLERTKQQEKMEYQVCAADMNVLKSHVEQLVQNQFI [THNSL1]
HeLa Kyoto [1]; cell cycle stage: G1/S
  melting temperature: 52.5 °C
HeLa Kyoto [1]; cell cycle stage: mitosis
  melting temperature: 52.7 °C
HeLa Kyoto [2]
  solubility in G1/S (log2): -0.0605
HeLa Kyoto [3]
  solubility change mitosis (log2): -0.0759
HeLa Kyoto [4]; [5]
  thermal stability score: 0.435
HeLa Kyoto [4]; cell cycle stage: mitosis
  thermal stability score: -0.697

## MLHLSAAPPAPPPEVTATARPCLCSVGRRGDGGKMAAAGALERSFVELSGAERERPRHFREFTVCSIGTANAVAGAVKYSESAGGFYYVESGKLFSVTRNRFIHWKTSGDTLELMEESLDINLLNNAIRLKFQNCSVLPGGVYVSETQNRVIILMLTNQTVHRLLLPHPSRMYRSELVVDSQMQSIFTDIGKVDFTDPCNYQLIPAVPGISPNSTASTAWLSSDGEALFALPCASGGIFVLKLPPYDIPGMVSVVELKQSSVMQRLLTGWMPTAIRGDQSPSDRPLSLAVHCVEHDAFIFALCQDHKLRMWSYKEQMCLMVADMLEYVPVKKDLRLTAGTGHKLRLAYSPTMGLYLGIYMHAPKRGQFCIFQLVSTESNRYSLDHISSLFTSQETLIDFALTSTDIWALWHDAENQTVVKYINFEHNVAGQWNPVFMQPLPEEEIVIRDDQDPREMYLQSLFTPGQFTNEALCKALQIFCRGTERNLDLSWSELKKEVTLAVENELQGSVTEYEFSQEEFRNLQQEFWCKFYACCLQYQEALSHPLALHLNPHTNMVCLLKKGYLSFLIPSSLVDHLYLLPYENLLTEDETTISDDVDIARDVICLIKCLRLIEESVTVDMSVIMEMSCYNLQSPEKAAEQILEDMITIDVENVMEDICSKLQEIRNPIHAIGLLIREMDYETEVEMEKGFNPAQPLNIRMNLTQLYGSNTAGYIVCRGVHKIASTRFLICRDLLILQQLLMRLGDAVIWGTGQLFQAQQDLLHRTAPLLLSYYLIKWGSECLATDVPLDTLESNLQHLSVLELTDSGALMANRFVSSPQTIVELFFQEVARKHIISHLFSQPKAPLSQTGLNWPEMITAITSYLLQLLWPSNPGCLFLECLMGNCQYVQLQDYIQLLHPWCQVNVGSCRFMLGRCYLVTGEGQKALECFCQAASEVGKEEFLDRLIRSEDGEIVSTPRLQYYDKVLRLLDVIGLPELVIQLATSAITEAGDDWKSQATLRTCIFKHHLDLGHNSQAYEALTQIPDSSRQLDCLRQLVVVLCERSQLQDLVEFPYVNLHNEVVGIIESRARAVDLMTHNYYELLYAFHIYRHNYRKAGTVMFEYGMRLGREVRTLRGLEKQGNCYLAALNCLRLIRPEYAWIVQPVSGAVYDRPGASPKRNHDGECTAAPTNRQIEILELEDLEKECSLARIRLTLAQHDPSAVAVAGSSSAEEMVTLLVQAGLFDTAISLCQTFKLPLTPVFEGLAFKCIKLQFGGEAAQAEAWAWLAANQLSSVITTKESSATDEAWRLLSTYLERYKVQNNLYHHCVINKLLSHGVPLPNWLINSYKKVDAAELLRLYLNYDLLEEAVDLVSEYVDAVLGKGHQYFGIEFPLSATAPMVWLPYSSIDQLLQALGENSANSHNIALSQKILDKLEDYQQKVDKATRDLLYRRTL [NUP160]
HeLa Kyoto [1]; cell cycle stage: G1/S
  melting temperature: 52.1 °C
HeLa Kyoto [1]; cell cycle stage: mitosis
  melting temperature: 49.4 °C
HeLa Kyoto [2]
  solubility in G1/S (log2): -0.58
HeLa Kyoto [3]
  solubility change mitosis (log2): 0.135
HeLa Kyoto [4]; [5]
  thermal stability score: -3.22
HeLa Kyoto [4]; cell cycle stage: mitosis
  thermal stability score: -3.66

## MLKALFLTMLTLALVKSQDTEETITYTQCTDGYEWDPVRQQCKDIDECDIVPDACKGGMKCVNHYGGYLCLPKTAQIIVNNEQPQQETQPAEGTSGATTGVVAASSMATSGVLPGGGFVASAAAVAGPEMQTGRNNFVIRRNPADPQRIPSNPSHRIQCAAGYEQSEHNVCQDIDECTAGTHNCRADQVCINLRGSFACQCPPGYQKRGEQCVDIDECTIPPYCHQRCVNTPGSFYCQCSPGFQLAANNYTCVDINECDASNQCAQQCYNILGSFICQCNQGYELSSDRLNCEDIDECRTSSYLCQYQCVNEPGKFSCMCPQGYQVVRSRTCQDINECETTNECREDEMCWNYHGGFRCYPRNPCQDPYILTPENRCVCPVSNAMCRELPQSIVYKYMSIRSDRSVPSDIFQIQATTIYANTINTFRIKSGNENGEFYLRQTSPVSAMLVLVKSLSGPREHIVDLEMLTVSSIGTFRTSSVLRLTIIVGPFSF [EFEMP1]
HeLa Kyoto [1]; cell cycle stage: G1/S
  melting temperature: 54.2 °C
HeLa Kyoto [1]; cell cycle stage: mitosis
  melting temperature: 54.1 °C
HeLa Kyoto [2]
  solubility in G1/S (log2): -0.278
HeLa Kyoto [3]
  solubility change mitosis (log2): -0.165
HeLa Kyoto [4]; [5]
  thermal stability score: 4.52
HeLa Kyoto [4]; cell cycle stage: mitosis
  thermal stability score: 3.96

Reference: the supplement of paper PMC5998384
